Data taken from paper PMC9482650, “Quantitative fragmentomics allow affinity mapping of interactomes” (Nature Communications, 2022).

What was measured:
Test in all cases: holdup assay
Design in all cases: key: below the threshold = too weak to quantify, mostly under pKd 3.1 to 4
Conditions in all cases: plain residues with an end cap or a label only (N-terminal biotin on a linker: ado-ado)
NOS1, P29475 = biological target: NOS1, P29475
GRIP1_5, Q9Y3R0 = biological target: T1, GRIP1_5, Q9Y3R0
T1 sequence (Q9Y3R0 568-668, limits assumed, looked up): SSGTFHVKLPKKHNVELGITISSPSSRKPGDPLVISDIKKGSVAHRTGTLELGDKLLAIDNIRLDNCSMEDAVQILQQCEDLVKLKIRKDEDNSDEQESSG

SCRIB_3, Q14160 = biological target: SCRIB_3, Q14160
Inadl_8, Q8NI35 = biological target: Inadl_8, Q8NI35
TJP1_3, Q07157 = biological target: TJP1_3, Q07157
GOPC, Q9HD26 = biological target: GOPC, Q9HD26
APBA1_1, Q02410 = biological target: T2, APBA1_1, Q02410
T2 sequence (Q02410 651-752, limits assumed, looked up): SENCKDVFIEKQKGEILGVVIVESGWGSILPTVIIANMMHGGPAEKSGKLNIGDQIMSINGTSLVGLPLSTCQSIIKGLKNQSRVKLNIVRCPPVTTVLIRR

PDZRN4_1, Q6ZMN7 = biological target: PDZRN4_1, Q6ZMN7
APBA1_2, Q02410 = biological target: T3, APBA1_2, Q02410
T3 sequence (Q02410 742-832, limits assumed, looked up): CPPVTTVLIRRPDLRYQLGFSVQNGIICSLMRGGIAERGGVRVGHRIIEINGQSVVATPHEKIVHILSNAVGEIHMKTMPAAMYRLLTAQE

FRMPD1, Q5SYB0 = biological target: T4, FRMPD1, Q5SYB0
T4 sequence (Q5SYB0 52-145, limits assumed, looked up): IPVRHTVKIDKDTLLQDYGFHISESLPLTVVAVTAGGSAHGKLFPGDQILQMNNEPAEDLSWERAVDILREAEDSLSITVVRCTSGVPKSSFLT

TJP2_1, Q9UDY2 = biological target: TJP2_1, Q9UDY2
HTRA3, P83110 = biological target: T5, HTRA3, P83110
T5 sequence (P83110 354-453, limits assumed, looked up): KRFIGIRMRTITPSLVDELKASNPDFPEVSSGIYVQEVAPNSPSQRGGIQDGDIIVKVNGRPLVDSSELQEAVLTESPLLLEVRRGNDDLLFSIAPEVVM

DLG1_3, Q12959 = biological target: DLG1_3, Q12959
LNX2_2, Q8N448 = biological target: T6, LNX2_2, Q8N448
T6 sequence (Q8N448 334-432, limits assumed, looked up): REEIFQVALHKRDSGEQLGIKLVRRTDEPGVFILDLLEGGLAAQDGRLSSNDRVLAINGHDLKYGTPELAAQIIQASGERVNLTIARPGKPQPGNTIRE

FRMPD3, Q5JV73 = biological target: FRMPD3, Q5JV73
NHERF4_1, Q86UT5-2 = biological target: NHERF4_1, Q86UT5-2
Inadl_5, Q8NI35 = biological target: Inadl_5, Q8NI35
GRIP2_3, Q9C0E4 = biological target: GRIP2_3, Q9C0E4
DVL3, Q92997 = biological target: T7, DVL3, Q92997
T7 sequence (Q92997 244-331, limits assumed, looked up): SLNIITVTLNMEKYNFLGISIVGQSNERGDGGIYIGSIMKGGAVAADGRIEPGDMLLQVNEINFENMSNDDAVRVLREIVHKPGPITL

DLG3_3, Q92796 = biological target: T8, DLG3_3, Q92796
T8 sequence (Q92796 374-475, limits assumed, looked up): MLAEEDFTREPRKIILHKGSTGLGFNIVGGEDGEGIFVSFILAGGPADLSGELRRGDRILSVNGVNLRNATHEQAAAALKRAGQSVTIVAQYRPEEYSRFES

Inadl_9, Q8NI35 = biological target: Inadl_9, Q8NI35
PDLIM1, O00151 = biological target: PDLIM1, O00151
PTPN3, P26045 = biological target: PTPN3, P26045
DLG1_2, Q12959 = biological target: DLG1_2, Q12959
DFNB31_2, Q9P202 = biological target: T9, DFNB31_2, Q9P202
T9 sequence (Q9P202 274-371, limits assumed, looked up): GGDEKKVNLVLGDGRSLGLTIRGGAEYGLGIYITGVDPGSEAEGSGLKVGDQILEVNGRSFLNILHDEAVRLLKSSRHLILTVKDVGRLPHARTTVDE

AHNAK1, Q09666 = biological target: AHNAK1, Q09666
SCRIB_1, Q14160 = biological target: SCRIB_1, Q14160
Inadl_4, Q8NI35 = biological target: Inadl_4, Q8NI35
Inadl_10, Q8NI35 = biological target: Inadl_10, Q8NI35
Inadl_10, Q8NI35, sequence (Q8NI35 1673-1763): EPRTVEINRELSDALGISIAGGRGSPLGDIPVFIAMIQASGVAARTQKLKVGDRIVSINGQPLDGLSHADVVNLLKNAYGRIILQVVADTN

DLG1_3, Q12959, sequence (Q12959 457-571): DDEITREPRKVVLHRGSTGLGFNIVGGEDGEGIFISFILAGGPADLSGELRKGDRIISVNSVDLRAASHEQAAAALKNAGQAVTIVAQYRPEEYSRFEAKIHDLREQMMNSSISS
Inadl_9, Q8NI35, sequence (Q8NI35 1530-1615): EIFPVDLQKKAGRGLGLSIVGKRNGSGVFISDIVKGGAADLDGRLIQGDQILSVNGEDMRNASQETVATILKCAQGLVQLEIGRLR
PDLIM1, O00151, sequence (O00151 1-87): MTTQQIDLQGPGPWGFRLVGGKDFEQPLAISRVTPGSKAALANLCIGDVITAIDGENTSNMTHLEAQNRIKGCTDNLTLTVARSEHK
Inadl_4, Q8NI35, sequence (Q8NI35 547-651): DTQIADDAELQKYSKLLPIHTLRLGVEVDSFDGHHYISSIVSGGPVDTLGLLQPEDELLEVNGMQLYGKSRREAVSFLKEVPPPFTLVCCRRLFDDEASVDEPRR
PTPN3, P26045, sequence (P26045 505-587): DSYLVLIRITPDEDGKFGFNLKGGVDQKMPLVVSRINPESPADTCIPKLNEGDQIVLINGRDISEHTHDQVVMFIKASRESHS
NHERF4_1, Q86UT5-2, sequence (Q86UT5 other isoform, or with tags, fused parts or gaps): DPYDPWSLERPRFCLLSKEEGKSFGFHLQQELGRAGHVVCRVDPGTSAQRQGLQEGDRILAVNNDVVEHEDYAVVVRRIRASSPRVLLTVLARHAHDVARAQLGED
Inadl_5, Q8NI35, sequence (Q8NI35 673-780): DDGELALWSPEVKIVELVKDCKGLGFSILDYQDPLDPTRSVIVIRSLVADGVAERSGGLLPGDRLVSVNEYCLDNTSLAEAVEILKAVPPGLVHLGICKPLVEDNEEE
NOS1, P29475, sequence (P29475 9-101): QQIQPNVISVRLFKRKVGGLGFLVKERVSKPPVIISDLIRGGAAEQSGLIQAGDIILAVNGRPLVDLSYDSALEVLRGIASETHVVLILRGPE
TJP1_3, Q07157, sequence (Q07157 416-512): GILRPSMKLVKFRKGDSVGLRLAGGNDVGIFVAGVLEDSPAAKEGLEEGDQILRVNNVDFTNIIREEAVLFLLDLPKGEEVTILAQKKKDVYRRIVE
SCRIB_3, Q14160, sequence (Q14160 999-1103): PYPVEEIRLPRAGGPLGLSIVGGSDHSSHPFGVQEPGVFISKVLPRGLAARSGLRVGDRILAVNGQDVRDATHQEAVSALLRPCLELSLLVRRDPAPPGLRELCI
GRIP2_3, Q9C0E4, sequence (Q9C0E4 238-339): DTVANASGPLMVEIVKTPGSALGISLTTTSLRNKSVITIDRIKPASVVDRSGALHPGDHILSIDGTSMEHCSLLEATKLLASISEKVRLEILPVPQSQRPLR
AHNAK1, Q09666, sequence (Q09666 4-100): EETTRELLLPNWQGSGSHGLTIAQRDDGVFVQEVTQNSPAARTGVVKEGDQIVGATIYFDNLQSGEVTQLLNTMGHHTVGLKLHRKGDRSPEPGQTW
SCRIB_1, Q14160, sequence (Q14160 718-814): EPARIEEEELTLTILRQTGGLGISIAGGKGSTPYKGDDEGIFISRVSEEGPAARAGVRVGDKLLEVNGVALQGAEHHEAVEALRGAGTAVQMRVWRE
PDZRN4_1, Q6ZMN7, sequence (Q6ZMN7 213-318): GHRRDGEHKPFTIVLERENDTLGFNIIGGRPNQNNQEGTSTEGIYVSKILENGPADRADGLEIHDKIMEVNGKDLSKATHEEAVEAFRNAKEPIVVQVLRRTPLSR
Inadl_8, Q8NI35, sequence (Q8NI35 1425-1530): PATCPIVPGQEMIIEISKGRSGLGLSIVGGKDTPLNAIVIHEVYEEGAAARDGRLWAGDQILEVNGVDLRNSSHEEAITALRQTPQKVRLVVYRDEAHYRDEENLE
FRMPD3, Q5JV73, sequence (Q5JV73 12-100): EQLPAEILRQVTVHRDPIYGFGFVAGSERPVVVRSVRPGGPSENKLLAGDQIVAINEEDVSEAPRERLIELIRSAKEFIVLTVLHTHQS
TJP2_1, Q9UDY2, sequence (Q9UDY2 24-128): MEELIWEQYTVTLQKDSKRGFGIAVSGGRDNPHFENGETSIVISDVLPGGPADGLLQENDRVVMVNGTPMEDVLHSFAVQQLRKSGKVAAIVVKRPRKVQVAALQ
DLG1_2, Q12959, sequence (Q12959 314-412): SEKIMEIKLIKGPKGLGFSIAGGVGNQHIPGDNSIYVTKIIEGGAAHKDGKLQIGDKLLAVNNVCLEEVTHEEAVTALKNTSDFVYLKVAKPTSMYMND

| Binder | pKd (NOS1, P29475) | pKd (GRIP1_5, Q9Y3R0) | pKd (SCRIB_3, Q14160) | pKd (Inadl_8, Q8NI35) | pKd (TJP1_3, Q07157) | pKd (GOPC, Q9HD26) | pKd (APBA1_1, Q02410) | pKd (PDZRN4_1, Q6ZMN7) | pKd (APBA1_2, Q02410) | pKd (FRMPD1, Q5SYB0) | pKd (TJP2_1, Q9UDY2) | pKd (HTRA3, P83110) | pKd (DLG1_3, Q12959) | pKd (LNX2_2, Q8N448) | pKd (FRMPD3, Q5JV73) | pKd (NHERF4_1, Q86UT5-2) | pKd (Inadl_5, Q8NI35) | pKd (GRIP2_3, Q9C0E4) | pKd (DVL3, Q92997) | pKd (DLG3_3, Q92796) | other results |
| --- | --- | --- | --- | --- | --- | --- | --- | --- | --- | --- | --- | --- | --- | --- | --- | --- | --- | --- | --- | --- | --- |
| TISFTQTSQF [SLC1A1, P43005] | 3.53 | below the threshold | 3.72 | below the threshold | below the threshold | below the threshold | below the threshold | below the threshold | below the threshold | below the threshold | below the threshold | below the threshold | below the threshold | below the threshold | below the threshold | 3.99 | below the threshold | below the threshold | below the threshold | below the threshold | pKd (Inadl_9, Q8NI35): below the threshold; pKd (PDLIM1, O00151): below the threshold; pKd (PTPN3, P26045): 4.09; pKd (DLG1_2, Q12959): 3.83; pKd (DFNB31_2, Q9P202): below the threshold; pKd (AHNAK1, Q09666): below the threshold; pKd (SCRIB_1, Q14160): 3.5; pKd (Inadl_4, Q8NI35): below the threshold; pKd (Inadl_10, Q8NI35): below the threshold |
| GIKKITSTAL [RPS6KA3, P51812] | 4.03 | below the threshold | 5.06 | 3.62 | below the threshold | 4.5 | below the threshold | 4.6 | 4.1 | below the threshold | 3.89 | below the threshold | 3.99 | below the threshold | below the threshold | 4.76 | 3.52 | 3.56 | below the threshold | 3.85 | pKd (Inadl_9, Q8NI35): below the threshold; pKd (PDLIM1, O00151): 3.48; pKd (PTPN3, P26045): 5; pKd (DLG1_2, Q12959): 4.32; pKd (DFNB31_2, Q9P202): below the threshold; pKd (AHNAK1, Q09666): below the threshold; pKd (SCRIB_1, Q14160): 4.94; pKd (Inadl_4, Q8NI35): below the threshold; pKd (Inadl_10, Q8NI35): 3.66 |
| NVYGIESVKI [GRIA2, P42262] | 3.71 | 3.5 | 3.56 | below the threshold | 3.62 | below the threshold | 3.52 | below the threshold | 3.68 | below the threshold | 3.56 | 3.64 | 3.93 | 3.85 | below the threshold | 3.78 | below the threshold | below the threshold | below the threshold | below the threshold | pKd (Inadl_9, Q8NI35): below the threshold; pKd (PDLIM1, O00151): below the threshold; pKd (PTPN3, P26045): below the threshold; pKd (DLG1_2, Q12959): 3.96; pKd (DFNB31_2, Q9P202): below the threshold; pKd (AHNAK1, Q09666): below the threshold; pKd (SCRIB_1, Q14160): below the threshold; pKd (Inadl_4, Q8NI35): below the threshold; pKd (Inadl_10, Q8NI35): below the threshold |
| DFLSTFHIRI [CIB2, O75838] | below the threshold | below the threshold | 3.56 | below the threshold | below the threshold | below the threshold | 4.08 | below the threshold | below the threshold | below the threshold | below the threshold | below the threshold | below the threshold | 3.74 | below the threshold | below the threshold | below the threshold | below the threshold | 3.59 | below the threshold | pKd (Inadl_9, Q8NI35): 3.66; pKd (PDLIM1, O00151): below the threshold; pKd (PTPN3, P26045): below the threshold; pKd (DLG1_2, Q12959): below the threshold; pKd (DFNB31_2, Q9P202): below the threshold; pKd (AHNAK1, Q09666): below the threshold; pKd (SCRIB_1, Q14160): below the threshold; pKd (Inadl_4, Q8NI35): below the threshold; pKd (Inadl_10, Q8NI35): below the threshold |
| PSHPRLQTHV [KIRREL2, Q6UWL6] | below the threshold | below the threshold | 4.26 | 3.61 | below the threshold | below the threshold | below the threshold | below the threshold | 3.74 | below the threshold | 4.58 | below the threshold | below the threshold | 3.5 | below the threshold | 3.62 | below the threshold | below the threshold | below the threshold | 3.75 | pKd (Inadl_9, Q8NI35): below the threshold; pKd (PDLIM1, O00151): below the threshold; pKd (PTPN3, P26045): 4.13; pKd (DLG1_2, Q12959): 4.65; pKd (DFNB31_2, Q9P202): below the threshold; pKd (AHNAK1, Q09666): below the threshold; pKd (SCRIB_1, Q14160): 3.88; pKd (Inadl_4, Q8NI35): below the threshold; pKd (Inadl_10, Q8NI35): below the threshold |
